# Changes are numbered by the printed parent chain. Where two headings read alike, the source gives them in different places.
# B1: NEG447A (antibody, human IgG1, lambda, V domains shown)
# VH: QVQLQESGPGLVKPSETLSLTCTVSGGSISRDYWSWVRQPPGAGLEWIGNIYYSGSTNYNPSLKSRVTISVATNKKQFSLKLTSVTAADTAVYYCARVPGCSSTSCIDGWFDPWGQGILVTVSS
# VL: QSVLTQPPSVSAAPGQKVTISCSGSSSNIGNTYVSWYQQLPGTAPKLLIYDNNKRPSGIPDRFSGSKSGTSATLGITGLQTGDEADYYCGTWDSSLSAWVFGGGTRLTVLG
# B2: P8D11 (antibody, human IgG1, lambda)
# heavy: not shown
# light: QSVLTQPPSVSVAPGKTARITCGGDNIGSRPVHWYQQKPGQAPILVVYDDSNRPSGIPERFSGSNSGNTATLTISRVEAGDEADYYCQVWSSSTDHPFGGGTKVTVLGQPKAAPSVTLFPPSSEELQANKATLVCLISDFYPGAVTVAWKADSSPVKAGVETTTPSKQSNNKYAASSYLSLTPEQWKSHRSYSCQVTHEGSTVEKTVAPTECS
# B3: P8D11B (antibody, V domains shown)
# VH: QVQLVESGGTLVQPGGSLRLSCAASGFTFKNYWMTWVRQAPGKGLEWVANIKKDGSEKYYVDSVRGRFTISRDNAKNSLFLQMNSLRPEDTAVYFCATVRSGRYFALDDWGQGTLVTVSS
# VL: QSVLTQPPSVSVAPGKTARITCGGDNIGSRPVHWYQQKPGQAPILVVYDDSNRPSGIPERFSGSNSGNTATLTISRVEAGDEADYYCQVWSSSTDHPFGGGTKVTVLG
# B4: P8D11C (antibody, V domains shown)
# VH: B3 VH with K30Q
# VL: B3 VL
# B5: P8D11D (antibody)
# heavy: not shown
# light: B2 light
# B6: P8D11E (antibody)
# heavy: not shown
# light: B2 light
# B7: EBB-C1975-A7 (antibody, V domains shown)
# VH: QVQLVESGGGLVQPGGSLRLSCAASGFTVSRNYMSWVRQAPGKGLEWVSGIYSGGSTYYADSVKGRFTISRDYSKNTLSLQMNTLRVEDTAVYFCAREDEFWSGYSAGVDWGQGTLVTVSS
# VL: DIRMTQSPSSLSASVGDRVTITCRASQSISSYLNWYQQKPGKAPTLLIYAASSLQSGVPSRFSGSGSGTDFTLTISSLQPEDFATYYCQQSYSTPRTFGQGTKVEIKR
# B8: 2081-36-8 (antibody, V domains shown)
# VH: QVQLQQSGAGLVRPGSSVKISCKTSGYAFSSYWMNWVKQRPGQGLEWIGQIYPGNGDTNYNGKFKGKATLTADKSSNTAYIQLNSLTSEDSAVYFCAREARQGYHYAMDYWGQGTSVTVSL
# VL: EIVFTQSPTTMAAFPGEKITITCSASSMINSNYLHWYQQKPGFSPKVLIYRTSNLASGVPARFSGTGSGTSFSLTIGTMEAEDVATYYCQQGSNIFTFGSGTKLEIK
# Tests used:
# [1] = target: T1, BKV serotype I infectious virus (VP1) (BK virus serotype I, UniProt P03088 1-362); assay: cell-based or functional assay
# T1 sequence (looked up): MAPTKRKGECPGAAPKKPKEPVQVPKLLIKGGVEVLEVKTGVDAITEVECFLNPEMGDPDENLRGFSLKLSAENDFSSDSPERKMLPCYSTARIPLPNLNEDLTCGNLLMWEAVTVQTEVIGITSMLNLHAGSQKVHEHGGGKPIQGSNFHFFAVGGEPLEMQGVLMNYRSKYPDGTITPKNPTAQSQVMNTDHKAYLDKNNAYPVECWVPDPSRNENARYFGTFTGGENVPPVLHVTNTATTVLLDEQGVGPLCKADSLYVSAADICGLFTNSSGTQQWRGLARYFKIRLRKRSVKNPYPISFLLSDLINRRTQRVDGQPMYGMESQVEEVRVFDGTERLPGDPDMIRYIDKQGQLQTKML
# [2] = target: T2, BKV serotype II chimeric infectious virus (VP1 of isolate SB) (BK virus serotype II); assay: cell-based or functional assay
# [3] = target: T3, BKV serotype III chimeric infectious virus (VP1 of isolate AS) (BK virus serotype III); assay: cell-based or functional assay
# [4] = target: T4, BKV serotype IV chimeric infectious virus (VP1 of strain ITA-4) (BK virus serotype IV); assay: cell-based or functional assay
# [5] = target: T2, BKV serotype II chimeric infectious …; assay: cell-based or functional assay; remark: listed apart in the source
# [6] = target: pooled RAV virus (BKV serotype I, 20 amino acid changes throughout VP1) (BK virus serotype I); assay: cell-based or functional assay
# [7] = target: JCV infectious virus, isolates Mad-1 and Mad-4 (VP1) (JC virus); assay: cell-based or functional assay
# [8] = target: T5, BKV serotype III VP1 pentamer (BK virus serotype III, UniProt P14996 30-297); assay: SET (solution equilibrium titration) on VP1 pentamers
# T5 construct: also called serotype III pentamers
# [9] = target: T6, BKV serotype IV VP1 pentamer (BK virus serotype IV, UniProt P14996 30-297); assay: as above
# T6 construct: also called serotype IV pentamers
# [10] = target: T7, BKV serotype II VP1 pentamer (BK virus serotype II, UniProt P14996 30-297); assay: as above
# T7 construct: also called serotype II pentamers
# [11] = target: T8, BKV serotype I VP1 pentamer (BK virus serotype I, UniProt P03088 30-297); assay: as above
# T8 construct: also called serotype I pentamers; BKV-VP1 serotype I pentameric protein
# [12] = target: T8, BKV serotype I VP1 pentamer; assay: SPR, antibody captured on Protein A
# [13] = target: T1, BKV serotype I infectious virus (VP1); assay: cell-based or functional assay; remark: listed apart in the source
# [14] = target: T2, BKV serotype II chimeric infectious …; assay: cell-based or functional assay; remark: listed apart in the source
# [15] = target: T3, BKV serotype III chimeric infectious …; assay: cell-based or functional assay; remark: listed apart in the source
# [16] = target: T4, BKV serotype IV chimeric infectious …; assay: cell-based or functional assay; remark: listed apart in the source
# [17] = target: T1, BKV serotype I infectious virus (VP1); assay: cell-based or functional assay; remark: listed apart in the source
# BKV serotype I VLP = target: T9, BKV serotype I VLP (BK virus serotype I, UniProt P03088 1-362)
# T9 chain: T1 sequence (looked up) with E158D, S171T, D175E, V210I, A219T
Binder,neutralization EC50 [1] [ng/mL],neutralization EC90 [1] [µg/mL],neutralization EC50 [2] [µg/mL],neutralization EC90 [2] [µg/mL],neutralization EC50 [3] [µg/mL],neutralization EC90 [3] [µg/mL],neutralization EC50 [4] [ng/mL],neutralization EC90 [4] [µg/mL],Kd [8] [pM],Kd [9] [pM],Kd [10] [pM],Kd [11] [pM],further results
B1,0.1,0.094,0.11,0.84,> 100,> 100,11,0.26,,,,,"activity (EC90), fold more potent than NEG447 [5]: ~8 fold"
B2,15,0.24,0.089,6.34,0.092,0.53,23,0.39,,,,,"EC50 of neutralization, fold change against wild-type virus [6]: 3.9 fold; neutralization EC50 [7]: 0.09 µg/mL; neutralization EC90 [7]: 2.76 µg/mL"
B3,3,0.3,0.088,1.93,0.014,0.5,5,0.54,2.5,2.9,1.8,3.8,
B4,0.3,0.34,0.18,0.5,0.049,0.51,5,0.54,4.8,2.7,2.7,4.5,
B5,34,0.15,0.161,1.64,0.185,0.87,3,0.063,5,3.2,2,5,
B6,32,0.11,0.144,2.52,0.236,0.9,2,0.087,6,2.7,1.7,4.3,
B7,,,,,,,,,,,,,binding result [12]: no binding; neutralization EC50 [13]: 0.024 µg/mL; neutralization EC90 [13]: 5.15 µg/mL; neutralization EC50 [14]: 0.11 µg/mL; neutralization EC90 [14]: 14.2 µg/mL; neutralization EC50 [15]: > 100 µg/mL; neutralization EC90 [15]: > 100 µg/mL; neutralization EC50 [16]: 0.28 µg/mL; neutralization EC90 [16]: 7.79 µg/mL
B8,,,,,,,,,,,,,neutralization EC50 [17]: 0.147 µg/mL; neutralization EC90 [17]: 0.909 µg/mL; EC50 (read off the curve) (BKV serotype I VLP): ~0.3 nM

# Reference: patent US20170088605A1 (Novartis, published 2017)
